Laboratory results published in PMC11140114, “Nanobodies as novel tools to monitor the mitochondrial fission factor Drp1” (Life Science Alliance, 2024).

B1: Drp1-specific nanobody D7 (VHH)
VHH: QVQLVESGGGLVQPGGSLRLSCVASGFDFSTYSMTWHRQVLGKERELVASITPGGSRTNVADSVKGRFTISRDNAKNMLYLQMDRLKPEDTGMYYCAQGGYYAEPDYWGKGTRVTVSS
notes: Selected by phage display from an immunised alpaca; also called D7 Nb; D7 nanotrap (immobilised on NHS-sepharose); source: E. coli periplasmic extract for the protein ELISA
B2: D258 (VHH)
VHH: EVQLQESGGESVQPGGSLRLSCVVSGTTFSTVAMGWYREVPGKKRELVARISSRGVTFYSDSVEGRFTISKDNDKSTLYLQMNSLETEDTAMYFCAAAGNSEVVLFRPKYWGQGTPVTVSS
B3: Drp1-specific nanobody D63 (VHH)
VHH: QVQLVESGGDLVQPGGSLKLSCAVSGVSDSLSSFYLMAWHRQAPGKQREMIADIVSGKATYADSVKGRFTISRDNAENTAYLQMNSLKPEDTAVYYCNVLIQNRSTFQSYWGQGTQVTVSS
notes: Selected by phage display from an immunised alpaca; also called D63 Nb; D63 nanotrap (immobilised on NHS-sepharose); source: E. coli periplasmic extract for the protein ELISA
B4: D193 (VHH)
VHH: EVQLVDSGGGLVQSGGSLTLACAASVSIDEFPAMTWYRQATGKQRELVGVITKGGATKLADSAKGRFTISRDNAKNMVYLQMTSLKPDDTAVYYCSVPNKVMGWGPDDWWGQGSQVTVSS
B5: D187 (VHH)
VHH: HVQLVESGGGLVQAGESLKLSCVASGIPFSSRAMGWYRQTPGKDRELVARISVRGVTFYADSVTGRFAISRDNDRSTLYLQMNSLKSEDTAIYFCAAGDNTQTVLTRPAHWGQGTQVTVSS
B6: D49 (VHH)
VHH: EVQLVESGGGWVQPGGSLRLSCSASGFTFRDYVMTWVRQTPGRGLEWVSAIDGSGSKINYLDSVKGRFTISRDNTQAMLYLQMNSLRPDDTAVYYCARKGRGGLGEGTYWGKGTQVTVSS
B7: D246 (VHH)
VHH: EVQLVESGGGLAQPGGSLRLSCAASGPTDNIYTMGWYRQPPGQSRQFVASVVWSTGVKAYAKFVGGRFRITKDSAKRTVDLQMDSLQPEDTAIYFCNLNDRVTPMSERDYWGQGTPVTVSS
B8: D219 (VHH)
chain: QVQLVESGGGMVQSGGSLSLSCAASGFAFSLYEMSWIRQAQGRGPEWVASINPGSSRTYYTDSVKGRFTISRDNDKNILYLKMNSLKPEDTALYYCARGRTLGIGISSDKGSQVTVSS

Assays:
[1] = biological target: T1, GFP-labelled Drp1 deletion construct GTPase (Homo sapiens, UniProt O00429); assay: pull-down; domain mapping: D7 or D63 nanotrap (Nb on NHS-sepharose) incubated overnight at 4°C with soluble protein fractions of HEK293 cells transiently expressing GFP-labelled Drp1 constructs; immunoblot with anti-GFP; details: one partner purified
T1 construct: Drp1 (DNM1L), human; also called N-terminal GTPase domain; source: HEK293, transiently transfected, soluble protein fraction

[2] = biological target: T2, GFP-labelled Drp1 deletion construct GTPase-MD (Homo sapiens, UniProt O00429); assay: as above; details: one partner purified
T2 construct: Drp1 (DNM1L), human; source: HEK293, transiently transfected, soluble protein fraction

[3] = biological target: T3, GFP-labelled Drp1 deletion construct GTPase-MD-VD (Homo sapiens, UniProt O00429); assay: as above; details: one partner purified
T3 construct: Drp1 (DNM1L), human; source: HEK293, transiently transfected, soluble protein fraction

[4] = biological target: T4, Drp1 isoform 2, endogenous in HeLa cells (Homo sapiens (HeLa), UniProt O00429-3, strain); assay: affinity purification with mass spectrometry; D7 and D63 nanotraps against GFP-Trap, soluble protein fractions of HEK293, HeLa and U2OS cells, three replicates; label-free quantification; Drp1 captured by the immobilised Nb; details: one partner purified
T4 construct: also called isoform 2 of Drp1; source: endogenous, HeLa soluble protein fraction

[5] = biological target: recombinant human dynamin-related protein 1 (Drp1), isoform 1 (Homo sapiens, isoform 1, UniProt O00429)
Chain of recombinant human dynamin-related protein 1 (Drp1), isoform 1 (O00429 whole entry, canonical isoform): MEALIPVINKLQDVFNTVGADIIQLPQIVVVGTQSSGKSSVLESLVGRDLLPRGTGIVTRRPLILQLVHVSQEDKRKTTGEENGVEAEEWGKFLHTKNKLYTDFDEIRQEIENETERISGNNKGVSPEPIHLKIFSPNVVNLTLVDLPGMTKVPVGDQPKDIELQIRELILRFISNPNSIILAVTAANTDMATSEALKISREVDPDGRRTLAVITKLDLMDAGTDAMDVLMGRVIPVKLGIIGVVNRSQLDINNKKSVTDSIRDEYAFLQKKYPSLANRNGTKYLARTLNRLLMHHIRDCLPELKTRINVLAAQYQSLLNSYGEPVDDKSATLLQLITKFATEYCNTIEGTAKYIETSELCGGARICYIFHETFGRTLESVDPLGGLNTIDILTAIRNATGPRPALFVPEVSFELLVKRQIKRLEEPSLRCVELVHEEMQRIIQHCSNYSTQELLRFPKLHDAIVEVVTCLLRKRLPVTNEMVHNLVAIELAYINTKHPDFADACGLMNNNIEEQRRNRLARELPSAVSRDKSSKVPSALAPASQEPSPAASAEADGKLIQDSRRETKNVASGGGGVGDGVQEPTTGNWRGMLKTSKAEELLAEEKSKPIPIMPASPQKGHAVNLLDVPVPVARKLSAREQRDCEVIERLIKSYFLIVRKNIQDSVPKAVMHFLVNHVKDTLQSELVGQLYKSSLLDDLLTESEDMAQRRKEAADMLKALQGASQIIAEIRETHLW

| Binder | binding result [5] | further results |
| --- | --- | --- |
| B1 | – | binding result [1]: binds; binding result [2]: binds; binding result [3]: binds; binding result [4]: binds |
| B2 | binds | – |
| B3 | – | binding result [4]: binds |
| B4 | binds | – |
| B5 | binds | – |
| B6 | binds | – |
| B7 | binds | – |
| B8 | binds | – |
